The record followed here is the Immune Epitope Database (IEDB).

pKd: −log10 of the molar value. Bounds are passed on as bounds.

For one experiment, the target named is HLA-A*02:02. The experiment in a line: IEDB peptide-MHC binding, purified MHC/competitive/radioactivity; filed as Kd, often an IC50 or EC50 that approximates it; ≥ and ≤ were set here for values at or beyond the usual limits of such assays. To be noted: source organism: Vaccinia virus WR.
Take GIFVDTMSI: the pKd – broadly, −log10 of the Kd, conventionally taken in molar units – was 5.54.
Consider GMSIVCIVA, for which the negative-log Kd (pKd) was 6.72.
Still for that read-out and setting: under GVEVRYIDI stands 4.92.

A further experiment has as its target HLA-A*33:01. Described as above. Particulars: source organism: Lassa virus Josiah.
On to VTFLLLCGR, for which the pKd was 6.88.

The experiment is the same for the next values; noted with them: source organism: Lymphocytic choriomeningitis virus (strain Armstrong).
Consider SKFWYLEHAK, for which the negative logarithm of the Kd (pKd) is 6.06.

Still in this experiment, the particulars now being: source organism: Mammarenavirus brazilense.
Consider TALAKCNLDH, for which the pKd was not above 4.33.

Staying with this experiment, now noted: source organism: Mammarenavirus juninense.
With SKQYIHCFRK, the pKd was not above 4.58.

Staying with this experiment, now noted: source organism: Mammarenavirus lassaense.
Take TCQGSDDIKK: the negative-log Kd (pKd) is not above 4.62.

The same experiment, now with this note: source organism: SARS coronavirus Tor2.
In the case of RLCLFDRYFK, the pKd was 5.71.
Consider SMQNCLLRLK, for which the pKd was 6.14.
On to TLNVLAWLY, for which the pKd is 5.13.
TQWSLFFFVY: the pKd was 5.86.
Still for that read-out and setting: under TSTGNYNYK stands 4.91.
In the case of TTTSTALGK, the pKd was not above 4.11.
Still for that read-out and setting: under VLLRKNGNK stands 5.02.

The same experiment, now with this note: source organism: Vaccinia virus Copenhagen.
Regarding SLLKETIQK, the pKd was 5.13.
On the same count and under the same terms, under YTFAISYCR stands 8.76.

The same experiment, now with this note: source organism: Vaccinia virus WR.
Consider QLLKILDNLR, for which the pKd is 5.25.
On the same count and under the same terms, under QQFANVISK stands not above 4.55; under RLFRSPQVK, 4.82.
In the case of SIHLTKTDK, the pKd is not above 4.32.
On the same count and under the same terms, next, STSAADIKR: not above 4.66.
On the same count and under the same terms, next, SVSAKQLRTR: 5.25.
SVSIILANER: the negative-log Kd (pKd) was 5.79.
Turning to TIISEEYLSK, the pKd is 5.05.
Same read-out and setting: next, TSLAIKNYY: not above 4.53.
For the sequence TTLLNETAK, the pKd is 5.09.
In the case of TTYDFLARK, the negative logarithm of the Kd (pKd) is 5.07.
Consider TVKMGAFMY, for which the negative-log Kd (pKd) is 5.06.
Take VFKGFSDKVR: the negative-log Kd (pKd) was 6.03.
On the same count and under the same terms, next, VLEIINDKGK: not above 4.15.
As for VSDLYTSMR, the pKd is 5.38.
The same measure, in the same setting: next, YITDDSDDY: not above 4.11; YTISSESLVY: not above 4.15.

In another experiment the target is HLA-A*31:01. Described as above. Particulars: source organism: Lassa virus Josiah.
On to VTFLLLCGR, for which the negative-log Kd (pKd) is 7.74.

Staying with this experiment, now noted: source organism: Lymphocytic choriomeningitis virus (strain Armstrong).
Consider SKFWYLEHAK, for which the negative-log Kd (pKd) was 6.00.

Still in this experiment, the particulars now being: source organism: Mammarenavirus brazilense.
Turning to TALAKCNLDH, the pKd was 6.06.

The same experiment, now with this note: source organism: Mammarenavirus juninense.
For the sequence SKQYIHCFRK, the pKd is 6.05.

Still in this experiment, the particulars now being: source organism: Mammarenavirus lassaense.
As to TCQGSDDIKK, the pKd is 5.20.

The same experiment, now with this note: source organism: SARS coronavirus Tor2.
As for RLCLFDRYFK, the pKd was 7.34.
The same measure, in the same setting: under SMQNCLLRLK stands 7.74; under TLNVLAWLY, 5.57.
Still for that read-out and setting: next, TQWSLFFFVY: 5.80; TSTGNYNYK: 6.82; TTTSTALGK: 5.97.
Still for that read-out and setting: next, VLLRKNGNK: 5.63.

Staying with this experiment, now noted: source organism: Vaccinia virus Copenhagen.
With SLLKETIQK, the negative-log Kd (pKd) was not above 4.70.
Same read-out and setting: next, YTFAISYCR: 9.03.

Still in this experiment, the particulars now being: source organism: Vaccinia virus WR.
Turning to QLLKILDNLR, the pKd is 7.16.
Same read-out and setting: under QQFANVISK stands 5.88; under RLFRSPQVK, 5.30; under SIHLTKTDK, 5.03.
Same read-out and setting: next, STSAADIKR: 5.89; SVSAKQLRTR: 6.15; SVSIILANER: 6.18.
In the case of TIISEEYLSK, the negative-log Kd (pKd) is 5.17.
Still for that read-out and setting: next, TSLAIKNYY: 5.65.
Still for that read-out and setting: next, TTLLNETAK: 5.45; TTYDFLARK: 7.09; TVKMGAFMY: 5.52.
On the same count and under the same terms, under VFKGFSDKVR stands 6.70; under VLEIINDKGK, not above 4.15.
Take VSDLYTSMR: the negative-log Kd (pKd) is 5.88.
Still for that read-out and setting: under YITDDSDDY stands not above 4.11; under YTISSESLVY, not above 4.55.

The target of the next experiment is HLA-A*02:06. Described as above. Particulars: source organism: Dengue virus 1 Brazil/97-11/1997.
As to VQYENLKYSV, the pKd was 7.51.

Staying with this experiment, now noted: source organism: Dengue virus 1 Singapore/S275/1990.
As for FQSHQLWAT, the negative logarithm of the Kd (pKd) was 7.59.

Still in this experiment, the particulars now being: source organism: Dengue virus 2 16681-PDK53.
As for YSMCTGKFKV, the negative logarithm of the Kd (pKd) is 7.26.

Still in this experiment, the particulars now being: source organism: Dengue virus 3 Martinique/1243/1999.
In the case of IMTIDLDPV, the negative logarithm of the Kd (pKd) is 7.46.
The same measure, in the same setting: under VVVGDIIGV stands 8.36.

The same experiment, now with this note: source organism: Dengue virus 4 Singapore/8976/1995.
For the sequence VQADMGCVV, the pKd was 7.63.

Still in this experiment, the particulars now being: source organism: Lassa virus Josiah.
Consider FSTSFYLISI, for which the pKd was 8.03.

The same experiment, now with this note: source organism: SARS coronavirus Tor2.
Turning to FLFLAWIML, the negative-log Kd (pKd) is 7.44.

Staying with this experiment, now noted: source organism: Vaccinia virus WR.
For the sequence AVLSEYETMV, the pKd is 7.63.
In the case of CLEAKTHFST, the negative-log Kd (pKd) is not above 4.16.
On the same count and under the same terms, under DIDLLFNEKL stands not above 4.59; under DILQMREIIT, 4.75.
On the same count and under the same terms, under EIARIENEM stands not above 4.11.
The same measure, in the same setting: under ELKHGLLDSI stands 5.87; under FISIYSRPKI, 6.40.
For the sequence FLFWFLKSGA, the pKd is 7.64.
Same read-out and setting: next, FVSTMPVET: 5.81.
Turning to GIFVDTMSI, the negative logarithm of the Kd (pKd) is 5.79.
The same measure, in the same setting: next, GMSIVCIVA: 5.35; GVEVRYIDI: 4.99.

The next experiment deals with HLA-A*02:03. The description is as above. To be noted: source organism: Dengue virus 1 Brazil/97-11/1997.
On to KMFEATARGA, for which the negative-log Kd (pKd) is 7.29.
The same measure, in the same setting: next, TIGLSLVASV: 7.89.
As to VLFSGVSWT, the negative logarithm of the Kd (pKd) is 7.22.

Staying with this experiment, now noted: source organism: Dengue virus 3 Martinique/1243/1999.
Regarding IMTIDLDPV, the negative-log Kd (pKd) is 7.82.

The same experiment, now with this note: source organism: Dengue virus 4 Dominica/814669/1981.
GLFTSLGKA: the pKd was 7.97.

Staying with this experiment, now noted: source organism: Dengue virus 4 Philippines/H241/1956.
For the sequence GLFKTLTGEI, the pKd is 7.82.

Still in this experiment, the particulars now being: source organism: Lassa virus Josiah.
In the case of FSTSFYLISI, the pKd was 7.28.

The experiment is the same for the next values; noted with them: source organism: SARS coronavirus Tor2.
On to FLFLAWIML, for which the pKd is 7.42.

Still in this experiment, the particulars now being: source organism: Vaccinia virus WR.
Regarding AVLSEYETMV, the pKd was 8.83.
Same read-out and setting: under CLEAKTHFST stands 4.95; under DIDLLFNEKL, not above 4.57; under DILQMREIIT, not above 4.25.
Still for that read-out and setting: next, EIARIENEM: not above 4.32; ELKHGLLDSI: 7.26; FISIYSRPKI: 6.99.
The same measure, in the same setting: under FLFWFLKSGA stands 9.23; under FVSTMPVET, 6.41; under GIFVDTMSI, 6.03.
With GMSIVCIVA, the pKd is 6.18.
Same read-out and setting: under GVEVRYIDI stands not above 4.34.
